Assays:
Format in all cases: binding
Nedd8 [1] = target: T1, Nedd8 (Homo sapiens, UniProt Q15843); test: tSR competition assay with Atto532-tagged ubiquitin, relative fluorescence; conditions: 5 nM Atto532-tagged ubiquitin protein and 600 nM tSR
Description: (§1) A competition assay was performed where unconjugated free ubiquitin proteins, different kinds of conjugated free ubiquitin proteins, and Nedd8 were added to mixtures of 5 nM Atto532-tagged ubiquitin protein and 600 nM tSR. The relative fluorescence was measured. […] The Ki values for unconjugated ubiquitin proteins and the different kinds of conjugated free ubiquitin proteins are provided in a table (bottom).
as §1, with “The binding affinities of tSR were determined (see FIG. 25). A competition” for “A competition”, “performed where free ubiquitin” for “performed where unconjugated free ubiquitin”, “a table (see FIG. 25).” for “a table (bottom).”

[2] = target: unconjugated ubiquitin protein (Homo sapiens, UniProt P0CG48); test: Direct titration of Alexa488-tagged tSR, relative fluorescence; conditions: 10 nM Alexa488 tSR
Description: (§2) The relative fluorescence intensity changes of Alexa488-tagged tSR when ubiquitin is added is shown (middle). The relative fluorescence of 10 nM Alexa488 tSR when different concentrations of unconjugated ubiquitin protein, conjugated ubiquitin protein, or Nedd8 are added (right).
(§3) The tSR can be used for direct titration experiments (see FIG. 26). The relative fluorescence intensity changes of Alexa488-tagged tSR when ubiquitin is added at varying concentrations. The relative fluorescence of 10 nM Alexa488 tSR was measured with different concentrations of unconjugated ubiquitin protein, conjugated ubiquitin protein, or Nedd8.

Nedd8 [3] = target: T1, Nedd8; test: as above; conditions: 10 nM Alexa488 tSR
Description: as §2, §3

[4] = tested on: conjugated ubiquitin protein; test: as above; conditions: 10 nM Alexa488 tSR
Description: as §2, §3

Nedd8 [5] = target: T1, Nedd8; test: Fluorescence intensity titration of Atto532-tIV with free Nedd8
Description: FIG. 22 provides a graph showing that Atto532-tagged tIV L1 Cys binds to free Nedd8 with a Kd of several μM.
Increasing concentrations of free Nedd8 protein were added to Atto532-tIV, and the fluorescence intensity was measured (see FIG. 22).

T1 sequence (Q15843 1-76 limits assumed): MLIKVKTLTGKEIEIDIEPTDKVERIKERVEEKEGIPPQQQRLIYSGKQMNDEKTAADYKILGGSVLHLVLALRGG

B1: tSR: universal chimeric polypeptide sensor, SEQ ID NO: 7: S5a UIM and Ruz domains connected by a linker (protein)
chain: MPSSHHHHHHSSGLVPRGSHMTEEEQIAYAMQMSLREAGGGSDLLCKKGCGYYGNPAWQGFCSKCWREEAHKCAAERAAAE
modifications: tSR - chimeric polypeptide comprising two binding domains that bind ubiquitin in non-overlapping regions
- specificity against Nedd8 (Nedd8 [1]): specificity against Nedd8

B2: Alexa488-tagged tSR: tSR tagged with Alexa488 fluorophore (conjugate)
chain: B1 chain
- binding of unconjugated ubiquitin protein [2]: detected
- binding of Nedd8 protein (Nedd8 [3]): but not Nedd8 protein
- binding of conjugated ubiquitin protein [4]: detected

B3: tIV: chimeric protein with two ubiquitin binding domains, IsoT ZnF and Vps27 UIM, SEQ ID NO: 5 (protein)
chain: MGSSHHHHHHSSGLVPRGSHMKQEVQAWDGEVRQVSKHAFSLKQLDNPARIPPSGWKCSKCDMRENLWLNLTDGSILCGRRYFDGSGGNNHAVEHYRETGYPLAVKLGTITPDGADVWSYDEDDMVLDPSLAEHLSHFGIDMLKMQKGSCAAAEEAELDLKAAIQESLREA
modifications: tIV - Atto532-tagged chimeric polypeptide comprising two binding domains that bind ubiquitin in non-overlapping regions
- binding affinity for free Nedd8 protein compared with conjugated Nedd8 protein (Nedd8 [5]; predicted from binding interactions of Vps27UIM and Nedd8): greater binding affinity

B4: Atto532-tagged tIV L1 Cys: tIV L1 Cys (SEQ ID NO: 5) tagged with Atto532 fluorophore at the linker Cys (conjugate)
chain: B3 chain
modifications: Atto532 fluorophore on linker Cys; tIV - Atto532-tagged chimeric polypeptide comprising two binding domains that bind ubiquitin in non-overlapping regions
- KD for Nedd8 (Nedd8 [5]; free Nedd8 added to Atto532-tIV, fluorescence intensity): several

— patent publication US11630109B2, “Sensors and assays for ubiquitin or ubiquitin-like proteins” (Colorado State University Research Foundation, priority 2013, dated 2023)
